The target of assay [1] is T1, human glucagon receptor (human, UniProt P47871 26-477).
T1 construct: whole, on cells; reporter assay used whole cells; also called hGCGR
Kind of assay: displacement of [125I]-glucagon from BHK membranes with human glucagon receptor, SPA, no serum albumin. (In a radioligand displacement assay an active substance lowers the binding of a labelled ligand.)

Assay [2] deals with T2, human GLP-1 receptor (human, UniProt P43220 24-463).
T2 construct: whole, on cells; reporter assay used whole cells
Briefly: displacement of [125I]-GLP-1-(7-36)NH2 from BHK membranes with human GLP-1R, SPA, no serum albumin.

Assay [3] has as its target T2, human GLP-1 receptor. Briefly: cell-based or functional assay.
For assay [4], the target named is T1, human glucagon receptor. Kind of assay: cell-based or functional assay.

This note sets out measurements from patent US20170101454A1 (Novo Nordisk, published 2017).

What is called IC50 is the concentration needed to halve the response being measured. Lower therefore signals inhibition by little substance.

Starred links: 1 amine or outer side, 2 acyl side, 3 side chain; linkers in the order of their positions; H or OH if unused. Non-standard residues stand in square brackets, D forms with d. Groups on a side chain read outwards from the residue. No end group written: not given here. *: point of attachment. C18 diacid = O=C(O)CCCCCCCCCCCCCCCCC(=O)*; γGlu = O=C(O)[C@H](CCC(=O)[*:2])N[*:1]; Ac4c = NC1(C(=O)O)CCC1; AEEA = NCCOCCOCC(=O)O; Aib = CC(C)(N)C(=O)O

T1 sequence (P47871 26-477): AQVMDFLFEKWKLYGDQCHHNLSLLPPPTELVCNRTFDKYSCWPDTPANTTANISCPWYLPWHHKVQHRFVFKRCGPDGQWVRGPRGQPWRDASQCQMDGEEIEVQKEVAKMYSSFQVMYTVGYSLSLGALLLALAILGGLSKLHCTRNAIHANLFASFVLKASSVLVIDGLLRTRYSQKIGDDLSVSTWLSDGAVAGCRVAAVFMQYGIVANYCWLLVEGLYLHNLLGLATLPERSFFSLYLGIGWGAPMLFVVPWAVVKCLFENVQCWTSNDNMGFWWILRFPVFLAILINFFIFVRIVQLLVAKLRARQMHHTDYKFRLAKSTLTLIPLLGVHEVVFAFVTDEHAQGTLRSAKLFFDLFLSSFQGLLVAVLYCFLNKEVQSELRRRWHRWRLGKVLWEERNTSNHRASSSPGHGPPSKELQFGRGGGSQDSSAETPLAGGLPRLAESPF

B1: N^ε29-[(4S)-4-carboxy-4-[[(4S)-4-carboxy-4-[[2-[2-[2-[[2-[2-[2-[[(4S)-4-carboxy-4-(17-carboxyheptadecanoylamino)butanoyl]amino]ethoxy]ethoxy]acetyl]amino]ethoxy … (peptide)
chain: H[Aib]QGTFTSDLSKYLDLRRARDFVQWLINK([γGlu-γGlu-AEEA-AEEA-γGlu-C18 diacid])-NH2
modifications: N-terminus assumed
SMILES: CC[C@H](C)[C@H](NC(=O)[C@H](CC(C)C)NC(=O)[C@H](Cc1c[nH]c2ccccc12)NC(=O)[C@H](CCC(N)=O)NC(=O)[C@@H](NC(=O)[C@H](Cc1ccccc1)NC(=O)[C@H](CC(=O)O)NC(=O)[C@H](CCCNC(=N)N)NC(=O)[C@H](C)NC(=O)[C@H](CCCNC(=N)N)NC(=O)[C@H](CCCNC(=N)N)NC(=O)[C@H](CC(C)C)NC(=O)[C@H](CC(=O)O)NC(=O)[C@H](CC(C)C)NC(=O)[C@H](Cc1ccc(O)cc1)NC(=O)[C@H](CCCCN)NC(=O)[C@H](CO)NC(=O)[C@H](CC(C)C)NC(=O)[C@H](CC(=O)O)NC(=O)[C@H](CO)NC(=O)[C@@H](NC(=O)[C@H](Cc1ccccc1)NC(=O)[C@@H](NC(=O)CNC(=O)[C@H](CCC(N)=O)NC(=O)C(C)(C)NC(=O)[C@@H](N)Cc1c[nH]cn1)[C@@H](C)O)[C@@H](C)O)C(C)C)C(=O)N[C@@H](CC(N)=O)C(=O)N[C@@H](CCCCNC(=O)CC[C@H](NC(=O)CC[C@H](NC(=O)COCCOCCNC(=O)COCCOCCNC(=O)CC[C@H](NC(=O)CCCCCCCCCCCCCCCCC(=O)O)C(=O)O)C(=O)O)C(=O)O)C(N)=O
For the molecule B1, the 50% inhibitory concentration (IC50) in assay [1] worked out at 83.2 nM; in assay [2], 0.3 nM.

B2: N^ε29-[(4S)-4-carboxy-4-[[(4S)-4-carboxy-4-[[2-[2-[2-[[2-[2-[2-[[(4S)-4-carboxy-4-(17-carboxyheptadecanoylamino)butanoyl]amino]ethoxy]ethoxy]acetyl]amino]ethoxy … (peptide)
chain: H[Aib]QGTFTSDYSKYLESRRAQDFVAWLISK([γGlu-γGlu-AEEA-AEEA-γGlu-C18 diacid])-NH2
modifications: N-terminus assumed
SMILES: CC[C@H](C)[C@H](NC(=O)[C@H](CC(C)C)NC(=O)[C@H](Cc1c[nH]c2ccccc12)NC(=O)[C@H](C)NC(=O)[C@@H](NC(=O)[C@H](Cc1ccccc1)NC(=O)[C@H](CC(=O)O)NC(=O)[C@H](CCC(N)=O)NC(=O)[C@H](C)NC(=O)[C@H](CCCNC(=N)N)NC(=O)[C@H](CCCNC(=N)N)NC(=O)[C@H](CO)NC(=O)[C@H](CCC(=O)O)NC(=O)[C@H](CC(C)C)NC(=O)[C@H](Cc1ccc(O)cc1)NC(=O)[C@H](CCCCN)NC(=O)[C@H](CO)NC(=O)[C@H](Cc1ccc(O)cc1)NC(=O)[C@H](CC(=O)O)NC(=O)[C@H](CO)NC(=O)[C@@H](NC(=O)[C@H](Cc1ccccc1)NC(=O)[C@@H](NC(=O)CNC(=O)[C@H](CCC(N)=O)NC(=O)C(C)(C)NC(=O)[C@@H](N)Cc1c[nH]cn1)[C@@H](C)O)[C@@H](C)O)C(C)C)C(=O)N[C@@H](CO)C(=O)N[C@@H](CCCCNC(=O)CC[C@H](NC(=O)CC[C@H](NC(=O)COCCOCCNC(=O)COCCOCCNC(=O)CC[C@H](NC(=O)CCCCCCCCCCCCCCCCC(=O)O)C(=O)O)C(=O)O)C(=O)O)C(N)=O
Consider B2, for which the 50% inhibitory concentration (IC50) in assay [1] turned out to be 60 nM; in assay [2] it was 2.2 nM.

B3: N^ε29-[(4S)-4-carboxy-4-[[(4S)-4-carboxy-4-[[2-[2-[2-[[2-[2-[2-[[(4S)-4-carboxy-4-(17-carboxyheptadecanoylamino)butanoyl]amino]ethoxy]ethoxy]acetyl]amino]ethoxy … (peptide)
chain: H[Aib]QGTFTSDLSKYLDLRRAREFVQWLISK([γGlu-γGlu-AEEA-AEEA-γGlu-C18 diacid])-NH2
modifications: N-terminus assumed
SMILES: CC[C@H](C)[C@H](NC(=O)[C@H](CC(C)C)NC(=O)[C@H](Cc1c[nH]c2ccccc12)NC(=O)[C@H](CCC(N)=O)NC(=O)[C@@H](NC(=O)[C@H](Cc1ccccc1)NC(=O)[C@H](CCC(=O)O)NC(=O)[C@H](CCCNC(=N)N)NC(=O)[C@H](C)NC(=O)[C@H](CCCNC(=N)N)NC(=O)[C@H](CCCNC(=N)N)NC(=O)[C@H](CC(C)C)NC(=O)[C@H](CC(=O)O)NC(=O)[C@H](CC(C)C)NC(=O)[C@H](Cc1ccc(O)cc1)NC(=O)[C@H](CCCCN)NC(=O)[C@H](CO)NC(=O)[C@H](CC(C)C)NC(=O)[C@H](CC(=O)O)NC(=O)[C@H](CO)NC(=O)[C@@H](NC(=O)[C@H](Cc1ccccc1)NC(=O)[C@@H](NC(=O)CNC(=O)[C@H](CCC(N)=O)NC(=O)C(C)(C)NC(=O)[C@@H](N)Cc1c[nH]cn1)[C@@H](C)O)[C@@H](C)O)C(C)C)C(=O)N[C@@H](CO)C(=O)N[C@@H](CCCCNC(=O)CC[C@H](NC(=O)CC[C@H](NC(=O)COCCOCCNC(=O)COCCOCCNC(=O)CC[C@H](NC(=O)CCCCCCCCCCCCCCCCC(=O)O)C(=O)O)C(=O)O)C(=O)O)C(N)=O
B3: the figures for the half-maximal inhibitory concentration (IC50) in assay [1] and in assay [2] were 71.2 nM and 0.9 nM, respectively.

B4: N^ε29-[(4S)-4-carboxy-4-[[(4S)-4-carboxy-4-[[2-[2-[2-[[2-[2-[2-[[(4S)-4-carboxy-4-(17-carboxyheptadecanoylamino)butanoyl]amino]ethoxy]ethoxy]acetyl]amino]ethoxy … (peptide)
chain: H[Aib]QGTFTSDLSKYLDLRRARDFVAWLISK([γGlu-γGlu-AEEA-AEEA-γGlu-C18 diacid])-NH2
modifications: N-terminus assumed
SMILES: CC[C@H](C)[C@H](NC(=O)[C@H](CC(C)C)NC(=O)[C@H](Cc1c[nH]c2ccccc12)NC(=O)[C@H](C)NC(=O)[C@@H](NC(=O)[C@H](Cc1ccccc1)NC(=O)[C@H](CC(=O)O)NC(=O)[C@H](CCCNC(=N)N)NC(=O)[C@H](C)NC(=O)[C@H](CCCNC(=N)N)NC(=O)[C@H](CCCNC(=N)N)NC(=O)[C@H](CC(C)C)NC(=O)[C@H](CC(=O)O)NC(=O)[C@H](CC(C)C)NC(=O)[C@H](Cc1ccc(O)cc1)NC(=O)[C@H](CCCCN)NC(=O)[C@H](CO)NC(=O)[C@H](CC(C)C)NC(=O)[C@H](CC(=O)O)NC(=O)[C@H](CO)NC(=O)[C@@H](NC(=O)[C@H](Cc1ccccc1)NC(=O)[C@@H](NC(=O)CNC(=O)[C@H](CCC(N)=O)NC(=O)C(C)(C)NC(=O)[C@@H](N)Cc1c[nH]cn1)[C@@H](C)O)[C@@H](C)O)C(C)C)C(=O)N[C@@H](CO)C(=O)N[C@@H](CCCCNC(=O)CC[C@H](NC(=O)CC[C@H](NC(=O)COCCOCCNC(=O)COCCOCCNC(=O)CC[C@H](NC(=O)CCCCCCCCCCCCCCCCC(=O)O)C(=O)O)C(=O)O)C(=O)O)C(N)=O
B4: the concentration for half-maximal inhibition (IC50) in assay [1] came to 144 nM; in assay [2], 1.1 nM.

As for H[Ac4c]QGTFTSDLSKYLESRRAREFVQWLIK([Gly-Ser-Glu-Gly-Ser-γGlu-γGlu-C18 diacid])T-NH2 (also called Chem. 16; Chem 16), the “GLP-1R EC50 (pM) [Assay (I)(a)], CRE luciferase reporter, BHK cells” value in assay [3] is 5 pM. Moreover, the “GlucagonR EC50 (pM), [Assay (I)(b)], CRE luciferase reporter, BHK cells” value in assay [4] was determined as 13 pM. This molecule showed an IC50 in assay [1] of 2.7 nM.

B5: N^ε29-[(4S)-4-carboxy-4-[[(4S)-4-carboxy-4-[[2-[2-[2-[[2-[2-[2-[[(4S)-4-carboxy-4-(17-carboxyheptadecanoylamino)butanoyl]amino]ethoxy]ethoxy]acetyl]amino]ethoxy … (peptide)
peptide: H[Aib]QGTFTSDLSKYLDLRRAREFVQWLINK([γGlu-γGlu-AEEA-AEEA-γGlu-C18 diacid])-NH2
modifications: N-terminus assumed
SMILES: CC[C@H](C)[C@H](NC(=O)[C@H](CC(C)C)NC(=O)[C@H](Cc1c[nH]c2ccccc12)NC(=O)[C@H](CCC(N)=O)NC(=O)[C@@H](NC(=O)[C@H](Cc1ccccc1)NC(=O)[C@H](CCC(=O)O)NC(=O)[C@H](CCCNC(=N)N)NC(=O)[C@H](C)NC(=O)[C@H](CCCNC(=N)N)NC(=O)[C@H](CCCNC(=N)N)NC(=O)[C@H](CC(C)C)NC(=O)[C@H](CC(=O)O)NC(=O)[C@H](CC(C)C)NC(=O)[C@H](Cc1ccc(O)cc1)NC(=O)[C@H](CCCCN)NC(=O)[C@H](CO)NC(=O)[C@H](CC(C)C)NC(=O)[C@H](CC(=O)O)NC(=O)[C@H](CO)NC(=O)[C@@H](NC(=O)[C@H](Cc1ccccc1)NC(=O)[C@@H](NC(=O)CNC(=O)[C@H](CCC(N)=O)NC(=O)C(C)(C)NC(=O)[C@@H](N)Cc1c[nH]cn1)[C@@H](C)O)[C@@H](C)O)C(C)C)C(=O)N[C@@H](CC(N)=O)C(=O)N[C@@H](CCCCNC(=O)CC[C@H](NC(=O)CC[C@H](NC(=O)COCCOCCNC(=O)COCCOCCNC(=O)CC[C@H](NC(=O)CCCCCCCCCCCCCCCCC(=O)O)C(=O)O)C(=O)O)C(=O)O)C(N)=O
notes: also called Chem. 22; Chem 22
In the case of B5, the IC50 in assay [1] was 67.3 nM; in assay [2], 0.3 nM.

B6: N^ε29-[(4S)-4-carboxy-4-[[(4S)-4-carboxy-4-[[2-[2-[2-[[2-[2-[2-[[(4S)-4-carboxy-4-(17-carboxyheptadecanoylamino)butanoyl]amino]ethoxy]ethoxy]acetyl]amino]ethoxy … (peptide)
chain: H[Aib]QGTFTSDLSKYLDLRRARDFVQWLISK([γGlu-γGlu-AEEA-AEEA-γGlu-C18 diacid])-NH2
modifications: N-terminus assumed
SMILES: CC[C@H](C)[C@H](NC(=O)[C@H](CC(C)C)NC(=O)[C@H](Cc1c[nH]c2ccccc12)NC(=O)[C@H](CCC(N)=O)NC(=O)[C@@H](NC(=O)[C@H](Cc1ccccc1)NC(=O)[C@H](CC(=O)O)NC(=O)[C@H](CCCNC(=N)N)NC(=O)[C@H](C)NC(=O)[C@H](CCCNC(=N)N)NC(=O)[C@H](CCCNC(=N)N)NC(=O)[C@H](CC(C)C)NC(=O)[C@H](CC(=O)O)NC(=O)[C@H](CC(C)C)NC(=O)[C@H](Cc1ccc(O)cc1)NC(=O)[C@H](CCCCN)NC(=O)[C@H](CO)NC(=O)[C@H](CC(C)C)NC(=O)[C@H](CC(=O)O)NC(=O)[C@H](CO)NC(=O)[C@@H](NC(=O)[C@H](Cc1ccccc1)NC(=O)[C@@H](NC(=O)CNC(=O)[C@H](CCC(N)=O)NC(=O)C(C)(C)NC(=O)[C@@H](N)Cc1c[nH]cn1)[C@@H](C)O)[C@@H](C)O)C(C)C)C(=O)N[C@@H](CO)C(=O)N[C@@H](CCCCNC(=O)CC[C@H](NC(=O)CC[C@H](NC(=O)COCCOCCNC(=O)COCCOCCNC(=O)CC[C@H](NC(=O)CCCCCCCCCCCCCCCCC(=O)O)C(=O)O)C(=O)O)C(=O)O)C(N)=O
Regarding B6, the IC50 in assay [1] was 64.7 nM; in assay [2], 1 nM.
